# Test results as given in the Immune Epitope Database (IEDB).
# How the values were obtained:
# [1] = molecular target: HLA-A*68:02; assay: IEDB peptide-MHC binding, cellular MHC/competitive/fluorescence; ≥ and ≤ were set here for values at or beyond the usual limits of such assays
# [2] = molecular target: HLA-A*02:01; assay: IEDB peptide-MHC binding, purified MHC/competitive/radioactivity; ≥ and ≤ were set here for values at or beyond the usual limits of such assays
# [3] = molecular target: HLA-A*02:02; assay: as above
# [4] = molecular target: HLA-A*02:06; assay: as above
# [5] = molecular target: HLA-A*02:03; assay: as above
# [6] = molecular target: HLA-A*02:01; assay: IEDB peptide-MHC binding, cellular MHC/competitive/fluorescence; ≥ and ≤ were set here for values at or beyond the usual limits of such assays
# [7] = molecular target: HLA-A*68:02; assay: IEDB peptide-MHC binding, purified MHC/competitive/radioactivity; ≥ and ≤ were set here for values at or beyond the usual limits of such assays
# [8] = source organism: Vaccinia virus WR
# [9] = source organism: Influenza A virus
# [10] = source organism: Hepacivirus hominis
# [11] = source organism: Mammarenavirus whitewaterense
# [12] = source organism: Mammarenavirus choriomeningitidis
# [13] = source organism: Mammarenavirus brazilense
Sequence,"IC50 [3, 8] [nM]","IC50 [4, 8] [nM]","IC50 [5, 8] [nM]","IC50 [6, 8] [nM]","IC50 [7, 8] [nM]",further results
IMEIVSHLRA,955,4410,396,,,"IC50 [1, 8]: 19700 nM; IC50 [2, 8]: 1190 nM"
RLIQNSITI,,,,,,"IC50 [1, 9]: ≥ 70000 nM; IC50 [2, 9]: 84 nM; IC50 [3, 9]: 137 nM; IC50 [4, 9]: 1330 nM; IC50 [5, 9]: 28 nM"
GLDERFVEEL,93,2520,1210,,,"IC50 [1, 8]: 6180 nM; IC50 [2, 8]: 331 nM"
GLIHACMLV,,,,,,"IC50 [1, 10]: 37400 nM; IC50 [2, 10]: 1.3 nM; IC50 [3, 10]: 1.5 nM; IC50 [4, 10]: 12 nM; IC50 [5, 10]: 1.9 nM"
AQFLYLYAL,,,,,,IC50 ([1]; source organism: SARS-CoV1): 9620 nM; IC50 ([2]; source organism: SARS-CoV1): 0.39 nM; IC50 ([3]; source organism: SARS-CoV1): 0.92 nM; IC50 ([4]; source organism: SARS-CoV1): 0.35 nM; IC50 ([5]; source organism: SARS-CoV1): 6.2 nM
GIIITVGMLI,3580,1130,595,,,"IC50 [1, 8]: 9200 nM; IC50 [2, 8]: 945 nM"
LLNMRDLIV,665,225,1.2,,,"IC50 [1, 8]: 23200 nM; IC50 [2, 8]: 42 nM"
RLIDFLKDV,,,,,,"IC50 [1, 9]: 31500 nM; IC50 [3, 9]: 16 nM; IC50 [4, 9]: 65 nM; IC50 [5, 9]: 7.3 nM"
FLYIIKLVFL,,,,,,IC50 ([1]; source organism: SARS-CoV1): 26400 nM; IC50 ([2]; source organism: SARS-CoV1): 19 nM; IC50 ([3]; source organism: SARS-CoV1): 7.3 nM; IC50 ([4]; source organism: SARS-CoV1): 865 nM; IC50 ([5]; source organism: SARS-CoV1): 22 nM
ILGFVFTLTV,,,,,,"IC50 [1, 9]: 5020 nM"
ALTDVEKRIL,97,934,127,,,"IC50 [1, 8]: 13800 nM; IC50 [2, 8]: 429 nM"
AMWLLLLSI,,,,,,IC50 ([1]; source organism: SARS-CoV1): 27700 nM; IC50 ([3]; source organism: SARS-CoV1): 357 nM; IC50 ([4]; source organism: SARS-CoV1): 268 nM; IC50 ([5]; source organism: SARS-CoV1): 205 nM
AMDSNTLEL,,,,,,"IC50 [1, 9]: ≥ 70000 nM; IC50 [3, 9]: 254 nM; IC50 [4, 9]: 1950 nM; IC50 [5, 9]: 524 nM"
ILDNAAKYV,126,1810,261,,,"IC50 [1, 8]: 22700 nM; IC50 [2, 8]: 14 nM"
SALMTLDDL,411,100,707,,,"IC50 [1, 8]: 6940 nM; IC50 [2, 8]: 1100 nM"
KLLIVLTCI,,,,,,IC50 ([1]; source organism: SARS-CoV1): 5470 nM; IC50 ([2]; source organism: SARS-CoV1): 229 nM; IC50 ([3]; source organism: SARS-CoV1): 260 nM; IC50 ([4]; source organism: SARS-CoV1): 449 nM; IC50 ([5]; source organism: SARS-CoV1): 1940 nM
ITLILSNKLL,1090,3890,4690,,,"IC50 [1, 8]: 6490 nM; IC50 [2, 8]: 2200 nM"
SILSLETVKM,203,806,455,,,"IC50 [1, 8]: 11100 nM; IC50 [2, 8]: 1310 nM"
DMLKLFTHDI,196,2970,16,,,"IC50 [1, 8]: 6410 nM; IC50 [2, 8]: 1450 nM"
VLWTVFHGA,,,,,,"IC50 [1, 10]: 34800 nM; IC50 [2, 10]: 100 nM; IC50 [3, 10]: 759 nM; IC50 [4, 10]: 189 nM; IC50 [5, 10]: 836 nM"
GLVDVCFWS,,,,,,"IC50 [1, 11]: 8220 nM; IC50 [2, 11]: 112 nM; IC50 [3, 11]: 116 nM; IC50 [4, 11]: 534 nM; IC50 [5, 11]: 1070 nM"
YIESKAKQL,144,2990,439,9620,1340,
IAIFNNRNLA,3360,890,1480,6300,1490,
VLPFDIKYI,135,506,9.7,,,"IC50 [1, 8]: 9870 nM"

Sequence,"IC50 [3, 8] [nM]","IC50 [4, 8] [nM]","IC50 [5, 8] [nM]","IC50 [6, 8] [nM]","IC50 [7, 8] [nM]",further results
YAGTIKESL,2070,3300,2490,21100,361,
KVDDTFYYV,,,,,,"IC50 [1, 8]: 45500 nM"
LTSVDIETAI,509,3130,2150,6730,221,
SIRCVKYLL,107,2880,56,7820,244,
TIVSRSSRGV,4700,3740,11,11300,1260,
FVNFNSVKNL,2020,2200,318,8720,121,
KTVKNVDII,607,698,1790,8730,1160,
GLISLILQI,,,,,,"IC50 [1, 9]: 12400 nM; IC50 [3, 9]: 27 nM; IC50 [4, 9]: 205 nM; IC50 [5, 9]: 5.4 nM"
LITLILSNKL,225,633,293,7660,1490,
LNMFVSDQV,,,,,,"IC50 [6, 12]: 5760 nM; IC50 [3, 12]: 18 nM; IC50 [4, 12]: 4810 nM; IC50 [5, 12]: 880 nM; IC50 [7, 12]: 7 nM"
IVFGIYKDNL,187,48,792,5460,628,
ATAGLTHMMI,,,,,,"IC50 [6, 9]: 12100 nM; IC50 [3, 9]: 636 nM; IC50 [4, 9]: 2200 nM; IC50 [5, 9]: 1060 nM; IC50 [7, 9]: 138 nM"
EATFIDVHI,1660,3430,862,10700,0.13,
ITRLEVIGLT,2210,967,219,6470,1180,
LSNCVHPAV,,,,,,"IC50 [6, 13]: 12200 nM; IC50 [3, 13]: 427 nM; IC50 [4, 13]: 461 nM; IC50 [5, 13]: 1100 nM; IC50 [7, 13]: 682 nM"
TITTFIPISA,4060,4840,176,9690,304,
SAEVERLMEL,1280,1250,2500,7910,2640,
ILGFVFTL,,,,,,"IC50 [1, 9]: ≥ 70000 nM; IC50 [2, 9]: 1.2 nM"
SAVFKDSFL,231,1140,536,6060,110,
ALQLLLEV,,,,,,"IC50 [1, 9]: ≥ 70000 nM"
ELAYYNSCML,1870,3570,151,12500,650,
NITTLLNETA,218,1130,106,5680,1720,
LVFNSISARA,1270,702,254,15900,168,
LLGCIITSL,,,,,,"IC50 [1, 10]: ≥ 70000 nM; IC50 [3, 10]: 79 nM; IC50 [4, 10]: 3130 nM; IC50 [5, 10]: 121 nM"

Sequence,"IC50 [3, 8] [nM]","IC50 [4, 8] [nM]","IC50 [5, 8] [nM]","IC50 [6, 8] [nM]","IC50 [7, 8] [nM]",further results
MMMNWSPTT,,,,,,"IC50 [1, 10]: 17900 nM; IC50 [3, 10]: 311 nM; IC50 [4, 10]: 1230 nM; IC50 [5, 10]: 106 nM"
STFNMWREIL,3120,3360,907,6000,67,
YVIRHVDGKI,621,522,114,8590,22,
YTFAISYCRA,325,37,38,10300,4,
RQDYRRSINV,1010,2220,375,10200,3970,
LMYKGLPWNV,,,,,,IC50 ([1]; source organism: SARS-CoV1): 5400 nM; IC50 ([3]; source organism: SARS-CoV1): 1.8 nM; IC50 ([4]; source organism: SARS-CoV1): 37 nM; IC50 ([5]; source organism: SARS-CoV1): 5.3 nM
NASKTINALV,765,3220,274,8460,21,
NITTLLNET,1300,2310,2900,39200,1540,
DVNSVQFSIL,2270,3400,1660,6660,2770,
PLHIVCSKT,997,3890,2150,7940,1880,
LTGTFVTAFI,672,413,596,5050,109,
SIMSMMNIT,4970,1760,681,7140,2370,
SIAMLKSKNI,1090,259,55,14000,2100,
STAEQLSKYV,1060,697,1870,8210,28,
AVKFAEESYT,1760,2260,1470,7830,2290,
ETMYLTMKAI,1320,3580,25,6580,4,
LVAEHRFENM,2050,723,462,≥ 70000,1400,
ALMDCIIFES,,,,,,"IC50 [6, 12]: 6230 nM; IC50 [3, 12]: 2.1 nM; IC50 [4, 12]: 13 nM; IC50 [5, 12]: 16 nM; IC50 [7, 12]: 507 nM"
ALCKVTVPT,110,210,130,,,"IC50 [1, 8]: ≥ 70000 nM"
YAGTIKESLL,1020,1760,4040,21900,1910,
KTPDYPLIDI,1120,725,249,5550,1250,
GLIYNRMGA,,,,,,"IC50 [6, 9]: 16700 nM; IC50 [1, 9]: ≥ 70000 nM"
LVKESMASL,1120,136,9.5,14300,2070,
KINEMVDELV,587,3060,492,26400,4960,
